For this experiment, the target named is IgG1 (manufactured by Sigma-Aldrich). As to the kind of experiment: SPR (Biacore T100), Fc-binding protein amine-coupled to CM5, IgG1 as analyte.

From patent US20200223885A1 come the findings set out here.

B1: Fc-binding protein FcR9_F (FcR9 with Val192Phe) (receptor)
chain: KIEEAMGMRTEDLPKAEVILEPQWNRVLEKDSVTLKCRGAYSPEDNSTQWFHNESLISSQASSYLIDAATVDDSGEYRCQTSLSTLSDPVQLEVHIGWLLLQAPRWEFKEGDPIHLRCHSWKNTALHKVTYLQNGKGRKYFHHNSDFYIPKATLKDSGSYSCRGLFGSKNVSSETVNITITQGGHHHHHH
Broadly, the Kd is the constant that tells how readily two partners part at equilibrium. Read a high Kd as weaker binding. As usually defined, the koff is a measure of how fast the partners let go of each other. Higher therefore signals a short-lived complex. The term kon denotes the second-order rate constant of association. B1 displayed a Kd of 3.28 µM, a koff of 0.301 s⁻¹ and a kon of 90200 M⁻¹ s⁻¹.
